This note sets out measurements from publication PMC9759335.

Read-outs that look alike come from different tables or passages of the source.

Data set [1] can be described thus: aggregate area of transfected HeLa cells. Conditions: glycan lost; control: P0wt-EGFP.
Data set [2] can be described thus: EGFP fluorescence in transfected HeLa cells. Conditions: glycan lost; control: P0wt-EGFP.
A short description of data set [3]: confocal EGFP imaging of HeLa cells. As to conditions: glycan changed form; control: untreated cells, same construct.
The nature of data set [4]: HeLa adhesion assay. As to conditions: glycan changed form; control: untreated P0D61N cells.

For the molecule “P0 D61N (Myelin Protein Zero mutant): D61N”, for the setting “N-glycosylation at N61”, the localisation_or_trafficking entry is listed as “decreases”. As to “P0 K138N (Myelin Protein Zero mutant): K138N”, the localisation_or_trafficking result (N-glycosylation at N138) was “decreases”. With “P0 D61N (mouse Mpz knock-in mutant): D61N (MpzD61N/+ mice)”, the expression_or_secretion entry (N-glycosylation at N61) was “no change”. With “P0 D109N (Myelin Protein Zero mutant): D109N”, the localisation_or_trafficking result (N-glycosylation at N109) is listed as “decreases”. In the case of “P0 D118N (Myelin Protein Zero mutant): D118N”, the localisation_or_trafficking result (N-glycosylation at N118) was “no change”. On to “P0 D61N (Myelin Protein Zero mutant): 750 μM N-butyl-deoxynojirimycin (NB-DNJ) on HeLa cells expressing D61N”, for which the localisation_or_trafficking entry (N-glycosylation at N61) is given as “increases”.

For “P0 D61N (mouse Mpz knock-in mutant): D61N (MpzD61N/− mice)”, the localisation_or_trafficking result (N-glycosylation at N61) was “changes”.

B1: P0 (Myelin Protein Zero): N122S (protein)
parent chain: MAPGAPSSSPSPILAVLLFSSLVLSPAQAIVVYTDREVHGAVGSRVTLHCSFWSSEWVSDDISFTWRYQPEGGRDAISIFHYAKGQPYIDEVGTFKERIQWVGDPRWKDGSIVIHNLDYSDNGTFTCDVKNPPDIVGKTSQVTLYVFEKVPTRYGVVLGAVIGGVLGVVLLLLLLFYVVRYCWLRRQAALQRRLSAMEKGKLHKPGKDASKRGRQTPVLYAMLDHSRSTKAVSEKKAKGLGESRKDKK
With B1, the “other: homophilic cell adhesion, percent_of_wt” value (“other … percent_of_wt” for short) in data set [1] is on record as “no change”. Further, the localisation_or_trafficking result in data set [2] is “no change”.

B2: P0 (Myelin Protein Zero): T124M (protein)
parent chain: MAPGAPSSSPSPILAVLLFSSLVLSPAQAIVVYTDREVHGAVGSRVTLHCSFWSSEWVSDDISFTWRYQPEGGRDAISIFHYAKGQPYIDEVGTFKERIQWVGDPRWKDGSIVIHNLDYSDNGTFTCDVKNPPDIVGKTSQVTLYVFEKVPTRYGVVLGAVIGGVLGVVLLLLLLFYVVRYCWLRRQAALQRRLSAMEKGKLHKPGKDASKRGRQTPVLYAMLDHSRSTKAVSEKKAKGLGESRKDKK
In the case of B2, in data set [1], the “other … percent_of_wt” value was “no change”. In addition, the localisation_or_trafficking result in data set [2] is recorded as “no change”.

B3: P0 (Myelin Protein Zero): 750 μM NB-DNJ on P0wt (protein)
parent chain: MAPGAPSSSPSPILAVLLFSSLVLSPAQAIVVYTDREVHGAVGSRVTLHCSFWSSEWVSDDISFTWRYQPEGGRDAISIFHYAKGQPYIDEVGTFKERIQWVGDPRWKDGSIVIHNLDYSDNGTFTCDVKNPPDIVGKTSQVTLYVFEKVPTRYGVVLGAVIGGVLGVVLLLLLLFYVVRYCWLRRQAALQRRLSAMEKGKLHKPGKDASKRGRQTPVLYAMLDHSRSTKAVSEKKAKGLGESRKDKK
In the case of B3, the localisation_or_trafficking entry in data set [3] is on record as “no change”.

B4: P0 (Myelin Protein Zero): T124K (protein)
parent chain: MAPGAPSSSPSPILAVLLFSSLVLSPAQAIVVYTDREVHGAVGSRVTLHCSFWSSEWVSDDISFTWRYQPEGGRDAISIFHYAKGQPYIDEVGTFKERIQWVGDPRWKDGSIVIHNLDYSDNGTFTCDVKNPPDIVGKTSQVTLYVFEKVPTRYGVVLGAVIGGVLGVVLLLLLLFYVVRYCWLRRQAALQRRLSAMEKGKLHKPGKDASKRGRQTPVLYAMLDHSRSTKAVSEKKAKGLGESRKDKK
With B4, the localisation_or_trafficking result in data set [2] was “no change”.

B5: P0 (Myelin Protein Zero): 750 μM NB-DNJ on P0D61N (protein)
parent chain: MAPGAPSSSPSPILAVLLFSSLVLSPAQAIVVYTDREVHGAVGSRVTLHCSFWSSEWVSDDISFTWRYQPEGGRDAISIFHYAKGQPYIDEVGTFKERIQWVGDPRWKDGSIVIHNLDYSDNGTFTCDVKNPPDIVGKTSQVTLYVFEKVPTRYGVVLGAVIGGVLGVVLLLLLLFYVVRYCWLRRQAALQRRLSAMEKGKLHKPGKDASKRGRQTPVLYAMLDHSRSTKAVSEKKAKGLGESRKDKK
As to B5, the “other: homophilic cell adhesion” value in data set [4] is given as “increases”.

B6: P0 (Myelin Protein Zero): T124A (protein)
parent chain: MAPGAPSSSPSPILAVLLFSSLVLSPAQAIVVYTDREVHGAVGSRVTLHCSFWSSEWVSDDISFTWRYQPEGGRDAISIFHYAKGQPYIDEVGTFKERIQWVGDPRWKDGSIVIHNLDYSDNGTFTCDVKNPPDIVGKTSQVTLYVFEKVPTRYGVVLGAVIGGVLGVVLLLLLLFYVVRYCWLRRQAALQRRLSAMEKGKLHKPGKDASKRGRQTPVLYAMLDHSRSTKAVSEKKAKGLGESRKDKK
As to B6, in data set [1], the “other … percent_of_wt” value is “no change”. The localisation_or_trafficking entry in data set [2] was “no change”.
